Measurements published in PMC10340229, “EpoR Activation Stimulates Erythroid Precursor Proliferation by Inducing Phosphorylation of Tyrosine-88 of the CDK-Inhibitor p27^Kip1” (Cells, 2023).
Changes are numbered by the printed parent chain. Names and notes keep the numbering of the source.

T1: GST–hIC EpoR (273–508aa), cytoplasmic domain of human EpoR (human, UniProt P19235 273-508)
T1 construct: also called GST–EpoR; source: E. coli BL21, purified on glutathione Sepharose beads
T1 sequence (looked up): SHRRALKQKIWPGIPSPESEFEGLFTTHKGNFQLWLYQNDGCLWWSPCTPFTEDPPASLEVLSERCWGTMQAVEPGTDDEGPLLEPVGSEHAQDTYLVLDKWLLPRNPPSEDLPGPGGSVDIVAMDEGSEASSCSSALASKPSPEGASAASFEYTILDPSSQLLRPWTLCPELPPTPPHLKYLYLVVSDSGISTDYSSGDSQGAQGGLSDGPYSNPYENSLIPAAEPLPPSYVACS

B1: GST–hIC EpoR N (273–433aa) (domain or fragment, human, UniProt P19235 273-433, looked up)
chain: SHRRALKQKIWPGIPSPESEFEGLFTTHKGNFQLWLYQNDGCLWWSPCTPFTEDPPASLEVLSERCWGTMQAVEPGTDDEGPLLEPVGSEHAQDTYLVLDKWLLPRNPPSEDLPGPGGSVDIVAMDEGSEASSCSSALASKPSPEGASAASFEYTILDPSS
notes: also called N–terminal truncated cytoplasmic domain of EpoR; source: E. coli BL21, purified on glutathione Sepharose beads
B2: p27 CK– (R30A, L32A, F62A, F64A) (natural protein, human, UniProt P46527 1-198, looked up)
chain: MSNVRVSNGSPSLERMDARQAEHPKPSACANAFGPVDHEELTRDLEKHCRDMEEASQRKWNADAQNHKPLEGKYEWQEVEKGSLPEFYYRPPRPPKGACKVPAQESQDVSGSRPAAPLIGAPANSEDTHLVDPKTDPSDSQTGLAEQCAGIRKRPATDDSSTQNKRANRTEENVSDGSPNAGSVEQTPKKPGLRRRQT
notes: p27^Kip1 (CDKN1B), human, with four point mutations; source: bacteria, purified by heat treatment
B3: p27 ΔSH3 (amino acids 94, 95, 96 PPK to GCA) (natural protein, human, UniProt P46527 1-198, looked up)
chain: B2 chain with A30R, A32L, A62F, A64F, P94G, P95C, K96A
notes: p27^Kip1 (CDKN1B), human, with point mutations in the proline-rich region; also called p27 ∆SH3; ΔSH3 mutant; source: bacteria, purified by heat treatment

Tests used:
[1] = target: T2, bacterially expressed recombinant p27 (full–length p27) (human, UniProt P46527 1-198); assay: pull-down; GST fusion proteins bound on glutathione Sepharose beads incubated for 2 h at 4 °C with purified bacterial p27, p27 mutants or p27 fragments; extensive washing; bound p27 detected by Western blot; settings: both partners purified
T2 construct: p27^Kip1 (CDKN1B), human, full length; No tag is named for the full-length protein; also called purified p27; source: bacteria, purified by heat treatment (95 °C, ultracentrifugation)

[2] = target: T1, GST–hIC EpoR (273–508aa), cytoplasmic …; assay: as above; settings: both partners purified

| Binder | binding result [1] | binding result [2] |
| --- | --- | --- |
| B1 | binds | – |
| B2 | – | binds |
| B3 | – | binds |
